Legend:
HeLa Kyoto [1] = assay: thermal stability score vs G1/S (z-score of summed log2 fold changes over temperatures); higher = more thermally stable than in G1/S
HeLa Kyoto [2] = assay: melting temperature (median over replicates), in situ; higher = more thermally stable
HeLa Kyoto [3] = assay: solubility in G1/S (NP-40 vs SDS abundance) (log2 ratio); higher = more soluble; conditions: cell cycle stage: G1/S
HeLa Kyoto [4] = assay: solubility change mitosis vs G1/S (difference of NP-40 vs SDS log2 ratios) (log2 ratio difference); higher = more soluble in mitosis
[5] = cell cycle stage: early G1 (4.5 h after nocodazole release)
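Wherever melting temperature (median over replicates), in situ is given: HeLa Kyoto cells synchronized by double thymidine or nocodazole block, proteins quantified by TMT10plex mass spectrometry, three independent biological replicates.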
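Wherever solubility change mitosis vs G1/S (difference of NP-40 vs SDS log2 ratios) is given: synchronized HeLa Kyoto cells (double thymidine block for G1/S, nocodazole release for mitosis), protein amounts in NP-40 versus SDS lysates quantified by mass spectrometry, three biological replicates.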
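Wherever solubility in G1/S (NP-40 vs SDS abundance) is given: HeLa Kyoto cells arrested at G1/S by double thymidine block, proteins quantified by TMT10plex mass spectrometry in mild NP-40 versus SDS extracts, three biological replicates.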
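Wherever thermal stability score vs G1/S (z-score of summed log2 fold changes over temperatures) is given: synchronized HeLa Kyoto cells, proteins quantified by TMT10plex mass spectrometry, three biological replicates, mitosis taken 0.5 h after nocodazole release, G1/S directly after double thymidine block.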

| Substance | thermal stability score (HeLa Kyoto [1]; [5]) | thermal stability score (HeLa Kyoto [1]; cell cycle stage: mitosis) | melting temperature (HeLa Kyoto [2]; cell cycle stage: G1/S) [°C] | melting temperature (HeLa Kyoto [2]; cell cycle stage: mitosis) [°C] | solubility in G1/S (log2) (HeLa Kyoto [3]) | solubility change mitosis (log2) (HeLa Kyoto [4]) |
| --- | --- | --- | --- | --- | --- | --- |
| MTTKRSLFVRLVPCRCLRGEEETVTTLDYSHCSLEQVPKEIFTFEKTLEELYLDANQIEELPKQLFNCQSLHKLSLPDNDLTTLPASIANLINLRELDVSKNGIQEFPENIKNCKVLTIVEASVNPISKLPDGFSQLLNLTQLYLNDAFLEFLPANFGRLTKLQILELRENQLKMLPKTMNRLTQLERLDLGSNEFTEVPEVLEQLSGLKEFWMDANRLTFIPGFIGSLKQLTYLDVSKNNIEMVEEGISTCENLQDLLLSSNSLQQLPETIGSLKNITTLKIDENQLMYLPDSIGGLISVEELDCSFNEVEALPSSIGQLTNLRTFAADHNYLQQLPPEIGSWKNITVLFLHSNKLETLPEEMGDMQKLKVINLSDNRLKNLPFSFTKLQQLTAMWLSDNQSKPLIPLQKETDSETQKMVLTNYMFPQQPRTEDVMFISDNESFNPSLWEEQRKQRAQVAFECDEDKDEREAPPREGNLKRYPTPYPDELKNMVKTVQTIVHRLKDEETNEDSGRDLKPHEDQQDINKDVGVKTSESTTTVKSKVDEREKYMIGNSVQKISEPEAEISPGSLPVTANMKASENLKHIVNHDDVFEESEELSSDEEMKMAEMRPPLIETSINQPKVVALSNNKKDDTKETDSLSDEVTHNSNQNNSNCSSPSRMSDSVSLNTDSSQDTSLCSPVKQTHIDINSKIRQEDENFNSLLQNGDILNSSTEEKFKAHDKKDFNLPEYDLNVEERLVLIEKSVDSTATADDTHKLDHINMNLNKLITNDTFQPEIMERSKTQDIVLGTSFLSINSKEETEHLENGNKYPNLESVNKVNGHSEETSQSPNRTEPHDSDCSVDLGISKSTEDLSPQKSGPVGSVVKSHSITNMEIGGLKIYDILSDNGPQQPSTTVKITSAVDGKNIVRSKSATLLYDQPLQVFTGSSSSSDLISGTKAIFKFDSNHNPEEPNIIRGPTSGPQSAPQIYGPPQYNIQYSSSAAVKDTLWHSKQNPQIDHASFPPQLLPRSESTENQSYAKHSANMNFSNHNNVRANTAYHLHQRLGPARHGEMWAISPNDRLIPAVTRSTIQRQSSVSSTASVNLGDPGSTRRAQIPEGDYLSYREFHSAGRTPPMMPGSQRPLSARTYSIDGPNASRPQSARPSINEIPERTMSVSDFNYSRTSPSKRPNARVGSEHSLLDPPGKSKVPRDWREQVLRHIEAKKLEKKHPQTSSSGDPCQDGIFISGQQNYSSATLSHKDVPPDSLMKMPLSNGQMGQPLRPQANYSQIHHPPQASVARHPSREQLIDYLMLKVAHQPPYTQPHCSPRQGHELAKQEIRVRVEKDPELGFSISGGVGGRGNPFRPDDDGIFVTRVQPEGPASKLLQPGDKIIQANGYSFINIEHGQAVSLLKTFQNTVELIIVREVSS [ERBB2IP] | 0.246 | 1.12 | 48.8 | 49 | -0.0185 | -0.0785 |
| DHRS1 | 0.897 | 0.418 | 50.7 | 51 | 0.111 | 0.0211 |
| ABCC2 | 0.294 | -0.626 | 51.6 | 51.6 | -0.128 | -0.0305 |
| MRRKEKRLLQAVALVLAALVLLPNVGLWALYRERQPDGTPGGSGAAVAPAAGQGSHSRQKKTFFLGDGQKLKDWHDKEAIRRDAQRVGNGEQGRPYPMTDAERVDQAYRENGFNIYVSDKISLNRSLPDIRHPNCNSKRYLETLPNTSIIIPFHNEGWSSLLRTVHSVLNRSPPELVAEIVLVDDFSDREHLKKPLEDYMALFPSVRILRTKKREGLIRTRMLGASVATGDVITFLDSHCEANVNWLPPLLDRIARNRKTIVCPMIDVIDHDDFRYETQAGDAMRGAFDWEMYYKRIPIPPELQKADPSDPFESPVMAGGLFAVDRKWFWELGGYDPGLEIWGGEQYEISFKVWMCGGRMEDIPCSRVGHIYRKYVPYKVPAGVSLARNLKRVAEVWMDEYAEYIYQRRPEYRHLSAGDVAVQKKLRSSLNCKSFKWFMTKIAWDLPKFYPPVEPPAAAWGEIRNVGTGLCADTKHGALGSPLRLEGCVRGRGEAAWNNMQVFTFTWREDIRPGDPQHTKKFCFDAISHTSPVTLYDCHSMKGNQLWKYRKDKTLYHPVSGSCMDCSESDHRIFMNTCNPSSLTQQWLFEHTNSTVLEKFNRN [GALNT10] | 0.401 | 0.507 | 49.9 | 52.5 | -0.106 | -0.0786 |
| SETD2 | 0.914 | 2.05 | 48.1 | 50.2 | -0.43 | 0.19 |
| MAAAMVPGRSESWERGEPGRPALYFCGSIRGGREDRTLYERIVSRLRRFGTVLTEHVAAAELGARGEEAAGGDRLIHEQDLEWLQQADVVVAEVTQPSLGVGYELGRAVAFNKRILCLFRPQSGRVLSAMIRGAADGSRFQVWDYEEGEVEALLDRYFEADPPGQVAASPDPTT [DNPH1] | -1.99 | -2.01 | 55.3 | 55.3 | 0.392 | 0.00918 |
| MEPFSCDTFVALPPATVDNRIIFGKNSDRLYDEVQEVVYFPAVVHDNLGERLKCTYIEIDQVPETYAVVLSRPAWLWGAEMGANEHGVCIGNEAVWGREEVCDEEALLGMDLVRLGLERADTAEKALNVIVDLLEKYGQGGNCTEGRMVFSYHNSFLIADRNEAWILETAGKYWAAEKVQEGVRNISNQLSITTKIAREHPDMRNYAKRKGWWDGKKEFDFAAAYSYLDTAKMMTSSGRYCEGYKLLNKHKGNITFETMMEILRDKPSGINMEGEFLTTASMVSILPQDSSLPCIHFFTGTPDPERSVFKPFIFVPHISQLLDTSSPTFELEDLVKKKSHFKPDRRHPLYQKHQQALEVVNNNEEKAKIMLDNMRKLEKELFREMESILQNKHLDVEKIVNLFPQCTKDEIQIYQSNLSVKVSS [SCRN3] | -0.926 | -0.525 | 52.9 | 52.3 | 0.271 | -0.25 |
| MVLCPVIGKLLHKRVVLASASPRRQEILSNAGLRFEVVPSKFKEKLDKASFATPYGYAMETAKQKALEVANRLYQKDLRAPDVVIGADTIVTVGGLILEKPVDKQDAYRMLSRLSGREHSVFTGVAIVHCSSKDHQLDTRVSEFYEETKVKFSELSEELLWEYVHSGEPMDKAGGYGIQALGGMLVESVHGDFLNVVGFPLNHFCKQLVKLYYPPRPEDLRRSVKHDSIPAADTFEDLSDVEGGGSEPTQRDAGSRDEKAEAGEAGQATAEAECHRTRETLPPFPTRLLELIEGFMLSKGLLTACKLKVFDLLKDEAPQKAADIASKVDASACGMERLLDICAAMGLLEKTEQGYSNTETANVYLASDGEYSLHGFIMHNNDLTWNLFTYLEFAIREGTNQHHRALGKKAEDLFQDAYYQSPETRLRFMRAMHGMTKLTACQVATAFNLSRFSSACDVGGCTGALARELAREYPRMQVTVFDLPDIIELAAHFQPPGPQAVQIHFAAGDFFRDPLPSAELYVLCRILHDWPDDKVHKLLSRVAESCKPGAGLLLVETLLDEEKRVAQRALMQSLNMLVQTEGKERSLGEYQCLLELHGFHQVQVVHLGGVLDAILATKVAP [ASMTL] | 0.0527 | 0.533 | 51.6 | 50.8 | -0.0739 | -0.178 |
| PLXND1 | 0.367 | 0.672 | 49.5 | 48.7 | 0.0061 | -0.0638 |
| MYO5C | 0.384 | 1.14 | 50.9 | – | -0.665 | 0.291 |
| MSSASVTAFEKEHLWMYLQALGFEPGPATIACGKIVSHTHLGVNMFDKLNRDAFHIISYFLFQVLDQSLTKEVFKFCWPPFDQKSDTEFRKHCCEWIKRISGECGSSFPQVVGSLFLSPGGPKFIHLMYHFARFVAMKYIKSNSKNSSHHFVETFNIKPQDLHKCIARCHFARSRFLQILQRQDCVTQKYQENAQLSVKQVRNLRSECIGLENQIKKMEPYDDHSNMEEKIQKVRSLWASVNETLMFLEKEREVVSSVLSLVNQYALDGTNVAINIPRLLLDKIEKQMFQLHIGNVYEAGKLNLLTVIQLLNEVLKVMKYERCQADQARLTVDLHYLEKETKFQKERLSDLKHMRYRIKDDLTTIRHSVVEKQGEWHKKWKEFLGLSPFSLIKGWTPSVDLLPPMSPLSFDPASEEVYAKSILCQYPASLPDAHKQHNQENGCRGDSDTLGALHDLANSPASFLSQSVSSSDRNSVTVLEKDTKMGTPKEKNEAISKKIPEFEVENSPLSDVAKNTESSAFGGSLPAKKSDPFQKEQDHLVEEVARAVLSDSPQLSEGKEIKLEELIDSLGSNPFLTRNQIPRTPENLITEIRSSWRKAIEMEENRTKEPIQMDAEHREVLPESLPVLHNQREFSMADFLLETTVSDFGQSHLTEEKVISDCECVPQKHVLTSHIDEPPTQNQSDLLNKKVICKQDLECLAFTKLSETSRMETFSPAVGNRIDVMGGSEEEFMKILDHLEVSCNKPSTNKTMLWNSFQISSGISSKSFKDNDFGILHETLPEEVGHLSFNSSSSSEANFKLEPNSPMHGGTLLEDVVGGRQTTPESDFNLQALRSRYEALKKSLSKKREESYLSNSQTPERHKPELSPTPQNVQTDDTLNFLDTCDLHTEHIKPSLRTSIGERKRSLSPLIKFSPVEQRLRTTIACSLGELPNLKEEDILNKSLDAKEPPSDLTR [HAUS6] | 0.745 | 1.14 | 48.3 | 49.1 | -0.0247 | -0.0199 |
| MWLAAAAPSLARRLLFLGPPPPPLLLLVFSRSSRRRLHSLGLAAMPEKRPFERLPADVSPINYSLCLKPDLLDFTFEGKLEAAAQVRQATNQIVMNCADIDIITASYAPEGDEEIHATGFNYQNEDEKVTLSFPSTLQTGTGTLKIDFVGELNDKMKGFYRSKYTTPSGEVRYAAVTQFEATDARRAFPCWDEPAIKATFDISLVVPKDRVALSNMNVIDRKPYPDDENLVEVKFARTPVMSTYLVAFVVGEYDFVETRSKDGVCVRVYTPVGKAEQGKFALEVAAKTLPFYKDYFNVPYPLPKIDLIAIADFAAGAMENWGLVTYRETALLIDPKNSCSSSRQWVALVVGHELAHQWFGNLVTMEWWTHLWLNEGFASWIEYLCVDHCFPEYDIWTQFVSADYTRAQELDALDNSHPIEVSVGHPSEVDEIFDAISYSKGASVIRMLHDYIGDKDFKKGMNMYLTKFQQKNAATEDLWESLENASGKPIAAVMNTWTKQMGFPLIYVEAEQVEDDRLLRLSQKKFCAGGSYVGEDCPQWMVPITISTSEDPNQAKLKILMDKPEMNVVLKNVKPDQWVKLNLGTVGFYRTQYSSAMLESLLPGIRDLSLPPVDRLGLQNDLFSLARAGIISTVEVLKVMEAFVNEPNYTVWSDLSCNLGILSTLLSHTDFYEEIQEFVKDVFSPIGERLGWDPKPGEGHLDALLRGLVLGKLGKAGHKATLEEARRRFKDHVEGKQILSADLRSPVYLTVLKHGDGTTLDIMLKLHKQADMQEEKNRIERVLGATLLPDLIQKVLTFALSEEVRPQDTVSVIGGVAGGSKHGRKAAWKFIKDNWEELYNRYQGGFLISRLIKLSVEGFAVDKMAGEVKAFFESHPAPSAERTIQQCCENILLNAAWLKRDAESIHQYLLQRKASPPTV [NPEPPS] | -0.503 | -1.51 | 53.9 | 53.6 | 0.0254 | -0.148 |
| MATSVGHRCLGLLHGVAPWRSSLHPCEITALSQSLQPLRKLPFRAFRTDARKIHTAPARTMFLLRPLPILLVTGGGYAGYRQYEKYRERELEKLGLEIPPKLAGHWEVALYKSVPTRLLSRAWGRLNQVELPHWLRRPVYSLYIWTFGVNMKEAAVEDLHHYRNLSEFFRRKLKPQARPVCGLHSVISPSDGRILNFGQVKNCEVEQVKGVTYSLESFLGPRMCTEDLPFPPAASCDSFKNQLVTREGNELYHCVIYLAPGDYHCFHSPTDWTVSHRRHFPGSLMSVNPGMARWIKELFCHNERVVLTGDWKHGFFSLTAVGATNVGSIRIYFDRDLHTNSPRHSKGSYNDFSFVTHTNREGVPMRKGEHLGEFNLGSTIVLIFEAPKDFNFQLKTGQKIRFGEALGSL [PISD] | -1.35 | -0.739 | 51.7 | 50.9 | -0.127 | -0.00593 |
